From the supplement of paper PMC9112550, “Optimization of the antimicrobial peptide Bac7 by deep mutational scanning” (BMC Biology, 2022)

System: Escherichia coli TOP10
Assay: shrunken log2 fold change of peptide-encoding DNA abundance (4.5 h post-induction vs induction); higher = less antimicrobial activity (less host growth inhibition)
Conditions: time post-induction: 4.5 h; library: site-saturation at positions 5, 18, 19, 20
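Further: peptides expressed intracellularly from a pBAD plasmid library in pooled LB shake-flask culture, induced with 0.3% L-arabinose, DNA abundance read by NGS, three biological replicates, DESeq2 with apeglm shrinkage.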

RRIRWRPPRLPRPRPRPWSQPRP
shrunken log2 fold change: 0.298

RRIRWRPPRLPRPRPRPWTKPRP
shrunken log2 fold change: -0.0653

RRIRWRPPRLPRPRPRPWVHPRP
shrunken log2 fold change: -0.597

RRIRWRPPRLPRPRPRPWVTPRP
shrunken log2 fold change: -0.37

RRIRWRPPRLPRPRPRPWYDPRP
shrunken log2 fold change: -0.31

RRIRWRPPRLPRPRPRPYCQPRP
shrunken log2 fold change: -0.694

RRIRWRPPRLPRPRPRPYDYPRP
shrunken log2 fold change: -0.262

RRIRWRPPRLPRPRPRPYECPRP
shrunken log2 fold change: -0.148

RRIRWRPPRLPRPRPRPYEQPRP
shrunken log2 fold change: -0.398

RRIRWRPPRLPRPRPRPYFHPRP
shrunken log2 fold change: -0.625

RRIRWRPPRLPRPRPRPYFMPRP
shrunken log2 fold change: -0.834

RRIRWRPPRLPRPRPRPYFPPRP
shrunken log2 fold change: -0.282

RRIRWRPPRLPRPRPRPYFQPRP
shrunken log2 fold change: 1.83

RRIRWRPPRLPRPRPRPYGAPRP
shrunken log2 fold change: -0.0532

RRIRWRPPRLPRPRPRPYGFPRP
shrunken log2 fold change: -0.00325

RRIRWRPPRLPRPRPRPYHSPRP
shrunken log2 fold change: -0.215

RRIRWRPPRLPRPRPRPYKCPRP
shrunken log2 fold change: 0.0561

RRIRWRPPRLPRPRPRPYKHPRP
shrunken log2 fold change: -1.24

RRIRWRPPRLPRPRPRPYLQPRP
shrunken log2 fold change: -0.113

RRIRWRPPRLPRPRPRPYMAPRP
shrunken log2 fold change: -0.247

RRIRWRPPRLPRPRPRPYMKPRP
shrunken log2 fold change: -0.459

RRIRWRPPRLPRPRPRPYPGPRP
shrunken log2 fold change: -0.0967

RRIRWRPPRLPRPRPRPYPHPRP
shrunken log2 fold change: -0.184

RRIRWRPPRLPRPRPRPYSFPRP
shrunken log2 fold change: -0.107

RRIRWRPPRLPRPRPRPYTAPRP
shrunken log2 fold change: -0.611

RRIRWRPPRLPRPRPRPYTEPRP
shrunken log2 fold change: -0.118

RRIRWRPPRLPRPRPRPYTVPRP
shrunken log2 fold change: -0.29

RRIRWRPPRLPRPRPRPYVAPRP
shrunken log2 fold change: -0.492

RRIRWRPPRLPRPRPRPYWHPRP
shrunken log2 fold change: -0.377

RRIRWRPPRLPRPRPRPYYHPRP
shrunken log2 fold change: -0.306

RRIRWRPPRLPRPRPRPYYIPRP
shrunken log2 fold change: -0.459

RRIRWRPPRLPRPRPRPYYYPRP
shrunken log2 fold change: -0.473

RRIRYRPPRLPRPRPRPAASPRP
shrunken log2 fold change: -0.0616

RRIRYRPPRLPRPRPRPAAWPRP
shrunken log2 fold change: 0.00758

RRIRYRPPRLPRPRPRPACGPRP
shrunken log2 fold change: -0.145

RRIRYRPPRLPRPRPRPACPPRP
shrunken log2 fold change: -0.0352

RRIRYRPPRLPRPRPRPADHPRP
shrunken log2 fold change: -0.0872

RRIRYRPPRLPRPRPRPADQPRP
shrunken log2 fold change: -0.0819

RRIRYRPPRLPRPRPRPAGDPRP
shrunken log2 fold change: -0.232

RRIRYRPPRLPRPRPRPAGSPRP
shrunken log2 fold change: 0.0105

RRIRYRPPRLPRPRPRPAKKPRP
shrunken log2 fold change: 0.0499

RRIRYRPPRLPRPRPRPAKLPRP
shrunken log2 fold change: -0.194

RRIRYRPPRLPRPRPRPAKMPRP
shrunken log2 fold change: -0.329

RRIRYRPPRLPRPRPRPAMAPRP
shrunken log2 fold change: 0.0187

RRIRYRPPRLPRPRPRPAPFPRP
shrunken log2 fold change: -0.11

RRIRYRPPRLPRPRPRPAPLPRP
shrunken log2 fold change: -0.0323

RRIRYRPPRLPRPRPRPAPSPRP
shrunken log2 fold change: -0.0165

RRIRYRPPRLPRPRPRPARSPRP
shrunken log2 fold change: 0.134

RRIRYRPPRLPRPRPRPATVPRP
shrunken log2 fold change: -0.042

RRIRYRPPRLPRPRPRPAVIPRP
shrunken log2 fold change: -0.0517

RRIRYRPPRLPRPRPRPAWHPRP
shrunken log2 fold change: -0.249

RRIRYRPPRLPRPRPRPAWLPRP
shrunken log2 fold change: -0.0755

RRIRYRPPRLPRPRPRPAYGPRP
shrunken log2 fold change: 3.33

RRIRYRPPRLPRPRPRPAYHPRP
shrunken log2 fold change: -0.321

RRIRYRPPRLPRPRPRPAYIPRP
shrunken log2 fold change: -0.00172

RRIRYRPPRLPRPRPRPAYRPRP
shrunken log2 fold change: -0.0312

RRIRYRPPRLPRPRPRPAYWPRP
shrunken log2 fold change: -0.029

RRIRYRPPRLPRPRPRPCAAPRP
shrunken log2 fold change: -0.642

RRIRYRPPRLPRPRPRPCAKPRP
shrunken log2 fold change: -0.374

RRIRYRPPRLPRPRPRPCANPRP
shrunken log2 fold change: -0.0013

RRIRYRPPRLPRPRPRPCEDPRP
shrunken log2 fold change: -0.371

RRIRYRPPRLPRPRPRPCEEPRP
shrunken log2 fold change: -0.156

RRIRYRPPRLPRPRPRPCGFPRP
shrunken log2 fold change: -0.241

RRIRYRPPRLPRPRPRPCGLPRP
shrunken log2 fold change: -0.107

RRIRYRPPRLPRPRPRPCHQPRP
shrunken log2 fold change: -0.00822

RRIRYRPPRLPRPRPRPCHTPRP
shrunken log2 fold change: -0.141

RRIRYRPPRLPRPRPRPCIAPRP
shrunken log2 fold change: -0.148

RRIRYRPPRLPRPRPRPCINPRP
shrunken log2 fold change: -0.00114

RRIRYRPPRLPRPRPRPCIVPRP
shrunken log2 fold change: -0.246

RRIRYRPPRLPRPRPRPCIWPRP
shrunken log2 fold change: -0.176

RRIRYRPPRLPRPRPRPCLSPRP
shrunken log2 fold change: -1.24

RRIRYRPPRLPRPRPRPCLWPRP
shrunken log2 fold change: -0.481

RRIRYRPPRLPRPRPRPCPEPRP
shrunken log2 fold change: -0.421

RRIRYRPPRLPRPRPRPCSDPRP
shrunken log2 fold change: -0.187

RRIRYRPPRLPRPRPRPCSGPRP
shrunken log2 fold change: -0.0198

RRIRYRPPRLPRPRPRPCTHPRP
shrunken log2 fold change: -1.23

RRIRYRPPRLPRPRPRPCWAPRP
shrunken log2 fold change: -0.434

RRIRYRPPRLPRPRPRPCYDPRP
shrunken log2 fold change: -0.379

RRIRYRPPRLPRPRPRPDAFPRP
shrunken log2 fold change: -1.27

RRIRYRPPRLPRPRPRPDAGPRP
shrunken log2 fold change: -0.492

RRIRYRPPRLPRPRPRPDAVPRP
shrunken log2 fold change: -0.365

RRIRYRPPRLPRPRPRPDELPRP
shrunken log2 fold change: 0.0702

RRIRYRPPRLPRPRPRPDHTPRP
shrunken log2 fold change: -0.11

RRIRYRPPRLPRPRPRPDIFPRP
shrunken log2 fold change: -0.032

RRIRYRPPRLPRPRPRPDIYPRP
shrunken log2 fold change: 0.0393

RRIRYRPPRLPRPRPRPDKDPRP
shrunken log2 fold change: -0.151

RRIRYRPPRLPRPRPRPDKQPRP
shrunken log2 fold change: 0.0233

RRIRYRPPRLPRPRPRPDLRPRP
shrunken log2 fold change: -1.03

RRIRYRPPRLPRPRPRPDLSPRP
shrunken log2 fold change: -0.025

RRIRYRPPRLPRPRPRPDMRPRP
shrunken log2 fold change: -0.00508

RRIRYRPPRLPRPRPRPDNEPRP
shrunken log2 fold change: -0.258

RRIRYRPPRLPRPRPRPDNKPRP
shrunken log2 fold change: -0.609

RRIRYRPPRLPRPRPRPDNLPRP
shrunken log2 fold change: -0.196

RRIRYRPPRLPRPRPRPDNYPRP
shrunken log2 fold change: -0.175

RRIRYRPPRLPRPRPRPDPRPRP
shrunken log2 fold change: -0.0317

RRIRYRPPRLPRPRPRPDQNPRP
shrunken log2 fold change: -0.269

RRIRYRPPRLPRPRPRPDQRPRP
shrunken log2 fold change: -0.24

RRIRYRPPRLPRPRPRPDRGPRP
shrunken log2 fold change: -0.213

RRIRYRPPRLPRPRPRPDRHPRP
shrunken log2 fold change: -0.189

RRIRYRPPRLPRPRPRPDRSPRP
shrunken log2 fold change: 0.00326

RRIRYRPPRLPRPRPRPDSWPRP
shrunken log2 fold change: -0.602

RRIRYRPPRLPRPRPRPDTQPRP
shrunken log2 fold change: -0.00672

RRIRYRPPRLPRPRPRPDVCPRP
shrunken log2 fold change: -0.124

RRIRYRPPRLPRPRPRPDVDPRP
shrunken log2 fold change: -0.0562

RRIRYRPPRLPRPRPRPDYWPRP
shrunken log2 fold change: -0.134

RRIRYRPPRLPRPRPRPEACPRP
shrunken log2 fold change: -0.0328

RRIRYRPPRLPRPRPRPEAHPRP
shrunken log2 fold change: -0.281

RRIRYRPPRLPRPRPRPEATPRP
shrunken log2 fold change: 0.28

RRIRYRPPRLPRPRPRPECIPRP
shrunken log2 fold change: -0.00318

RRIRYRPPRLPRPRPRPECSPRP
shrunken log2 fold change: -0.15

RRIRYRPPRLPRPRPRPEDGPRP
shrunken log2 fold change: -0.141

RRIRYRPPRLPRPRPRPEFCPRP
shrunken log2 fold change: -0.258

RRIRYRPPRLPRPRPRPEGGPRP
shrunken log2 fold change: 0.0214

RRIRYRPPRLPRPRPRPEHFPRP
shrunken log2 fold change: -0.0545

RRIRYRPPRLPRPRPRPEHLPRP
shrunken log2 fold change: -0.357

RRIRYRPPRLPRPRPRPEHRPRP
shrunken log2 fold change: 0.0623

RRIRYRPPRLPRPRPRPEIIPRP
shrunken log2 fold change: -0.0841

RRIRYRPPRLPRPRPRPEKNPRP
shrunken log2 fold change: -0.526

RRIRYRPPRLPRPRPRPELCPRP
shrunken log2 fold change: -0.403

RRIRYRPPRLPRPRPRPEMNPRP
shrunken log2 fold change: -0.0274

RRIRYRPPRLPRPRPRPENAPRP
shrunken log2 fold change: 0.0607

RRIRYRPPRLPRPRPRPENGPRP
shrunken log2 fold change: 0.0143

RRIRYRPPRLPRPRPRPENRPRP
shrunken log2 fold change: 0.0112

RRIRYRPPRLPRPRPRPEPIPRP
shrunken log2 fold change: -0.103

RRIRYRPPRLPRPRPRPEQMPRP
shrunken log2 fold change: 0.195

RRIRYRPPRLPRPRPRPERRPRP
shrunken log2 fold change: 0.197

RRIRYRPPRLPRPRPRPETHPRP
shrunken log2 fold change: -0.863

RRIRYRPPRLPRPRPRPEWTPRP
shrunken log2 fold change: -0.247

RRIRYRPPRLPRPRPRPEYEPRP
shrunken log2 fold change: -0.0176

RRIRYRPPRLPRPRPRPEYVPRP
shrunken log2 fold change: -0.0327

RRIRYRPPRLPRPRPRPFCEPRP
shrunken log2 fold change: -0.456

RRIRYRPPRLPRPRPRPFDHPRP
shrunken log2 fold change: -0.0332

RRIRYRPPRLPRPRPRPFFWPRP
shrunken log2 fold change: -0.03

RRIRYRPPRLPRPRPRPFHKPRP
shrunken log2 fold change: -0.0655

RRIRYRPPRLPRPRPRPFINPRP
shrunken log2 fold change: -1.17

RRIRYRPPRLPRPRPRPFKDPRP
shrunken log2 fold change: -0.0864

RRIRYRPPRLPRPRPRPFLCPRP
shrunken log2 fold change: -1.19

RRIRYRPPRLPRPRPRPFLIPRP
shrunken log2 fold change: -1.15

RRIRYRPPRLPRPRPRPFMPPRP
shrunken log2 fold change: -0.323

RRIRYRPPRLPRPRPRPFNGPRP
shrunken log2 fold change: -0.0276

RRIRYRPPRLPRPRPRPFQNPRP
shrunken log2 fold change: -0.0769

RRIRYRPPRLPRPRPRPFRKPRP
shrunken log2 fold change: -0.00664

RRIRYRPPRLPRPRPRPFRYPRP
shrunken log2 fold change: -0.315

RRIRYRPPRLPRPRPRPFSSPRP
shrunken log2 fold change: 0.015

RRIRYRPPRLPRPRPRPFVQPRP
shrunken log2 fold change: -0.0236

RRIRYRPPRLPRPRPRPFWQPRP
shrunken log2 fold change: -0.122

RRIRYRPPRLPRPRPRPFYCPRP
shrunken log2 fold change: -1.27

RRIRYRPPRLPRPRPRPFYHPRP
shrunken log2 fold change: -0.635

RRIRYRPPRLPRPRPRPFYMPRP
shrunken log2 fold change: -0.258

RRIRYRPPRLPRPRPRPGATPRP
shrunken log2 fold change: 0.128
